Test system: MS2 coat protein
Assay: apparent KD of MS2 coat protein; designed switch direction (-1 OFF switch, 1 ON switch): -1; higher = weaker reporter binding
Settings: Eterna round: R98
Experimental: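 RNA-MaP: designed FMN/MS2 RNA switches (84 nt design region) are transcribed on-chip within common flanks and titrated with SNAP-549-labelled MS2 coat protein (about 1-3000 nM) in 100 mM Tris pH 7.5, 80 mM KCl, 4 mM MgCl2, without or with 200 uM FMN. Median apparent KD per design; activation ratio = KD,OFF / KD,ON.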

Sequence	apparent KD of MS2 coat protein (input ligand: FMN 200 uM)	apparent KD of MS2 coat protein (input ligand: none)
CCAUAAAAGAUCCAAAAUUACAACAUGAGGAUCACCCAUGUGCAGGAUAUCGUGAAAGUAAAGUACGAGAAGGGCAGACACUGC [salish99_ExNG3_r2_008]	139 nM	154 nM
GCACUGGAUGUAGGAUAUCAGGACGAUAAGUCCUGAGAAGGACAUGAGGAUCACCCAUGUGAUAAUACCAGUGCAAAUAAUAUA [Denovo Exng1 26]	119 nM	19.5 nM
UAUAUAAUUAAGAGCUGGAAAAUCACAUGAGGAUCACCCAUGUAGGAUAUCAGCACGAUAAGUGCUGAGAAGGACUACCAGCUC [Denovo 79]	15.8 nM	20 nM
UCAUACAUGACAUGACAUGACAUGAGGAUCACCCAUGUUUACAAGGAUAUGUUGAUGAAACAUCAACAGAAGGUGUAAUGGACU [xclu_NG3_cac7]	232 nM	136 nM
UCGAACGGAAACAAAGUCGAUAGACAUGAGGAUCACCCAUGUCAGGAUAUGCCUACUAAAAGUAGGCAGAAGGGACGCGUUCGA [Contusion 7 - Jieux - Exclusion NG 3]	18 nM	20.8 nM
